The target in this assay is N-terminally SNAP-tagged human β2AR (SNAP-β2AR) (human, UniProt P07550 1-413). Put plainly: single-molecule co-localisation.

B1: bovine βArr2 tagged C-terminally with Halo (βArr2-Halo) (natural protein)
chain: MGEKPGTRVFKKSSPNCKLTVYLGKRDFVDHLDKVDPVDGVVLVDPDYLKDRKVFVTLTCAFRYGREDLDVLGLSFRKDLFIANYQAFPPTPNPPRPPTRLQERLLRKLGQHAHPFFFTIPQNLPCSVTLQPGPEDTGKACGVDFEIRAFCAKSLEEKSHKRNSVRLVIRKVQFAPEKPGPQPSAETTRHFLMSDRSLHLEASLDKELYYHGEPLNVNVHVTNNSTKTVKKIKVSVRQYADICLFSTAQYKCPVAQVEQDDQVSPSSTFCKVYTITPLLSNNREKRGLALDGKLKHEDTNLASSTIVKEGANKEVLGILVSYRVKVKLVVSRGGDVSVELPFVLMHPKPHDHIALPRPQSAAPETDAPVDTNLIEFETNYATDDDIVFEDFARLRLKGLKDEDYDDQFC
B1 registered an average interaction time of roughly 1 s.
